# Experimental data from US12098206B2, “PDGF receptor antibody and use thereof” (Seoul National University R&DB Foundation, priority 2018, dated 2024).
# T1: mPDGFR-β and cotinine (Mus musculus, UniProt P05622)
# T1 construct: mPDGFR-β
# T1 sequence (P05622 32-530): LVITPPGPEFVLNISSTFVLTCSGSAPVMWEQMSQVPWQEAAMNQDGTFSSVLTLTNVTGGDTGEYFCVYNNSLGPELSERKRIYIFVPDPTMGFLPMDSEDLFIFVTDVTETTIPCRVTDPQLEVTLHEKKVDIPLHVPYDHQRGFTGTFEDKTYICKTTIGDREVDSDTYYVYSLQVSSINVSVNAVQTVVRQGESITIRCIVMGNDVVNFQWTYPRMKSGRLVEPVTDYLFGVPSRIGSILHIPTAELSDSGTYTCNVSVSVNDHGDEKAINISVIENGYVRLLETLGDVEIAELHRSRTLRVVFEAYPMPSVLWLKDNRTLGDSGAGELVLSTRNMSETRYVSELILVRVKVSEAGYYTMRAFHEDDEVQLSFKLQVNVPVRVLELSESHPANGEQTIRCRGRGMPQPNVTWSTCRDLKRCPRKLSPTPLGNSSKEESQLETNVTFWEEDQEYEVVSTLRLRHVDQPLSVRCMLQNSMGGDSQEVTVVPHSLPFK
# B1: PRb-CN01: anti-mPDGFR-β chicken scFv clone (VH SEQ ID NO 7, VL SEQ ID NO 8), tested as scFv-Cκ-anti-cotinine scFv bispecific antibody (antibody, V domains shown)
# VH: AVTLDESGGGLQTPGGALSLVCKASGFTFSDRAMHWVRQAPGKGLEWVGLITNTGGSTNYGAAVKGRATISRDNGQSTVRLQLNNLRAEDTGTYYCTRGVGSWAHGGRIDAWGHGTEVIVSS
# VL: LTQPSSVSANPGETVKITCSGGSGSYGWFQQKSPGSAPVTVIYSNNQRPSDIPSRFSGSKSGSTNTLTITGVQAEDEAIYYCGTRDSSYVGIFGAGTTLTVL
# modifications: VH of PRb-CN01; VL of PRb-CN01
# Key:
# MOLT-4 cells [1] = test: Flow cytometry binding to MOLT-4 cells not expressing mPDGFR-β; details: 100 nM; FIG. 6
# Experimental: The present inventors tested the binding ability of the bispecific antibody of scFv-Cκ-scFv fusion proteins in MOLT-4 cells not expressing mPDGFR-β by flow cytometry analysis. MOLT-4 cells were cultured with a bispecific antibody of scFv-Cκ-scFv fusion protein (100 nM) at 4° C. for 1 hour. After washing as described above, the detection was conducted by treating with an APC-anti human Cκ antibody. The MOLT-4 cells were purchased from the Korea Cell Line Bank and prepared by culturing in RPMI-1640 (Welgene, Seoul, Korea) medium added by 10% fetal bovine serum, 1% penicillin, and streptomycin.
# MOLT-4 cells [2] = test: Cytotoxicity in MOLT-4 cells not expressing mPDGFR-β; format: cell-based; details: complex with cot-duo; FIG. 7
# Experimental: FIG. 7 is a graph confirming the cytotoxic ability of the bispecific antibody related to the anti-mPDGFR-β antibody and cot-duo complexes in the cells not expressing PDGFR-β. In FIG. 7a, MOLT-4 cells were reacted with the bispecific antibody and cot-duo complex (DAR4). The cellular ATP was measured to evaluate the relative cell viability. In FIG. 7b, MOLT-4 cells were reacted with the bispecific antibody and cot-duo complex (DAR2). The bispecific antibody anti-HER2 x cotinine scFv-Cκ-scFv was used as a negative control. DMSO was used as a vehicle control for cot-duo.
# mPDGFR-β and cotinine = biological target: T1, mPDGFR-β and cotinine; test: Enzyme immunoassay, simultaneous binding to cotinine and mPDGFR-β; details: cotinine-BSA coated wells, then mPDGFR-β-Fc chimera; FIG. 3d
# Experimental: In order to confirm whether the bispecific antibody has simultaneous binding ability to both cotinine and mPDGFR-β, anti-mPDGFR-β x cotinine scFv-Cκ-scFv fusion protein was reacted in wells coated with cotinine-BSA. Washing was performed for each process, and mPDGFR-β-Fc chimeric protein and HRP-anti human Fc antibody were sequentially incubated.
# neovascularization = test: Laser-induced choroidal neovascularization animal model; format: in vivo, mice; details: complex with cot-duo; 1 uL into the vitreous cavity, 10 nM; FIG. 10
# Experimental: After anesthetizing the mice, the retina of the mouse was irradiated with an indirect ophthalmoscope system (ILOODA) laser in a 300 um spot size with 400 mW intensity, 50 ms duration, and 810 nm wavelength to induce destruction of Bruch's membrane.
# After 4 days of laser irradiation, 1 uL of each bispecific antibody scFv-Cκ-scFv, and complex of the bispecific antibody scFv-Cκ-scFv fusion protein and the cot-duo was injected into the vitreous cavity at a concentration of 10 nM. After 7 days of laser irradiation, the eyes were removed to obtain retinal pigment epithelial-choroid-scleral tissue, and immunofluorescence staining was performed with isolectin B4 antibody conjugated to Alexa Fluor 594 to determine the extent of the choroidal neovascular membrane. The neovascularization inhibition ability of the scFv-Cκ-scFv fusion protein and the cot-duo complex was confirmed. To quantitatively analyze the extent of the choroidal neovascular membrane, the ImageJ program (NIH) was used.
# NIH3T3 cells = test: Internalization analysis by confocal microscopy in NIH3T3 cells; format: cell-based, mouse; details: 10 μg/mL, 37° C., 30 minutes, FIG. 4c
# Experimental: The bispecific antibody of scFv-Cκ-scFv fusion protein was analyzed with a confocal microscope for visualizing internalization. NIH3T3 cells were treated with the bispecific antibody of scFv-Cκ-scFv (10 μg/mL) diluted in DMEM containing 10% FBS, and internalized at 37° C. for 30 minutes. After washing the cells 3 times with cold PBS, acidic buffer (0.2 M acetic acid, 0.5 M sodium chloride) was treated at room temperature for 5 minutes to remove the antibody bound to the cell surface. Cells were washed twice with cold PBS, fixed with 4% paraformaldehyde for 10 minutes, and then subjected to immunofluorescence staining as previously described [J. M. Lim et al., J. Cell. Biol. 210 (2015) 23].
# Briefly, to block antibodies having non-specific reaction, cells were incubated in PBS containing 5% horse serum and 0.1% Triton X-100 for 30 minutes, and 2 μg/mL FITC-anti human Cκ antibody (TB28-2, BD Biosciences) was added at room temperature for 30 minutes. To image the initial endosomes, the cells were washed 3 times with PBS, incubated with PBS containing 5% horse serum and 0.1% Triton X-100 for 30 minutes, and then incubated with ati-RabS antibody diluted to 1:200 (C8B1, Cell Signaling Technology, Danvers, MA, USA). Alexa Fluor 546 goat anti-rabbit IgG (A-11035, Invitrogen) was sequentially treated. Cells were treated with 0.2 μg/mL DAPI to detect DNA. Confocal microscopy images were obtained using a Zeiss LSM 880 microscope, and images were analyzed with Zen software (Carl Zeiss, Thornwood, NY, USA).
# To measure the cellular internalization of the bispecific antibody of scFv-Cκ-scFv, anti-mPDGFR-β x cotinine scFv-Cκ-scFv fusion protein was incubated in NIH3T3 cells, and then treated with FITC-anti-human Cκ antibody and endosome-specific antibody. It was imaged using a confocal microscope. […] When the images were merged, the present inventors confirmed that the fluorescence of the three antibody clones and the endosome-specific antibody were co-localized.
molecule,measurement,setting,value
B1,binding to MOLT-4 cells,MOLT-4 cells [1],neither PRb-CN01 nor the anti-HER2 bispecific antibody of scFv-Cκ-scFv fusion antibody binds
same,toxicity in MOLT-4 cells compared to control antibody,MOLT-4 cells [2],no difference in toxicity from the control antibody
same,simultaneous binding to mPDGFR-β and cotinine,mPDGFR-β and cotinine,simultaneously bound to mPDGFR-β and cotinine
same,inhibition of neovascularization,neovascularization,inhibited neovascularization
same,cellular internalization,NIH3T3 cells,Intracellular fluorescence was detected
